Laboratory results taken from US20240376185A1 (SMIVET B V, published 2024).

Legend:
[1] = target: T1, tetanus neurotoxin (TeNT), authentic tetanus holotoxin (Clostridium tetani, UniProt P04958 2-1315); assay: competition ELISA on TeNT, binder biotinylated; competitor SVT15L
T1 sequence (P04958 2-457 limits assumed, chain 1 of 2): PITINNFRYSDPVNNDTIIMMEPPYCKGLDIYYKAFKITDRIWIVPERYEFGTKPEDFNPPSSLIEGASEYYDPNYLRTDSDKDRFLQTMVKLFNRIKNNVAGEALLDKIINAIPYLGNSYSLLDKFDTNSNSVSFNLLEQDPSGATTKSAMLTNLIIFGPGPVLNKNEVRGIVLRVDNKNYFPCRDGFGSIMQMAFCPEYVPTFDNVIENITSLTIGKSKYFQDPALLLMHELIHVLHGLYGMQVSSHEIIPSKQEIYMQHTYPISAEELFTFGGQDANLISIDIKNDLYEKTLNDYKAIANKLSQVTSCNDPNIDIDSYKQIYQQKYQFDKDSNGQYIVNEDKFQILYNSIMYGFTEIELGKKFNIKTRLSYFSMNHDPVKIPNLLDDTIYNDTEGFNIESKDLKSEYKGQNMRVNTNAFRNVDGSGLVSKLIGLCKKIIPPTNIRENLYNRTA
T1 sequence (P04958 458-1315 limits assumed, chain 2 of 2): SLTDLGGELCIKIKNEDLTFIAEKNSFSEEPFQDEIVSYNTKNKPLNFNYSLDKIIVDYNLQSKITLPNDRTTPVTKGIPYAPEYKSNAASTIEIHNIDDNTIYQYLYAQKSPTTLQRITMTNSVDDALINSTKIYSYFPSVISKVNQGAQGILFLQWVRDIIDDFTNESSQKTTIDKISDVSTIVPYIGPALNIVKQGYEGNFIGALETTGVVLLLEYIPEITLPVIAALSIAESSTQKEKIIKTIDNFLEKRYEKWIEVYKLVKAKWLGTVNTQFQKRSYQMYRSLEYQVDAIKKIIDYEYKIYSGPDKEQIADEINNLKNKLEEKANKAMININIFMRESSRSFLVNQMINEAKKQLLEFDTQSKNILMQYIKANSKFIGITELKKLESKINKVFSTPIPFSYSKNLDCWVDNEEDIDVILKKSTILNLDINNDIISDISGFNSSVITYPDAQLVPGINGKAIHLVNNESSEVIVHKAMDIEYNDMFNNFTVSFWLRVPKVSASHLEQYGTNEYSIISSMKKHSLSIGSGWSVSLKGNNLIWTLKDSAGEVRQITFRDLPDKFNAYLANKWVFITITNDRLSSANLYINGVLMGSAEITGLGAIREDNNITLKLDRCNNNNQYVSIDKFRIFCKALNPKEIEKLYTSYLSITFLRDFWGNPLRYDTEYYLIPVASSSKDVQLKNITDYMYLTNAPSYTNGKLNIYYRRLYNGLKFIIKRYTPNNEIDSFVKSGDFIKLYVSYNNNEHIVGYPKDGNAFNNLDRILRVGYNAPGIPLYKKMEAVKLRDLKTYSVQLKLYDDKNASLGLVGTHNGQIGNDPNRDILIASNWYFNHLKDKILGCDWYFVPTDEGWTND

[2] = target: T1, tetanus neurotoxin (TeNT), authentic …; assay: competition ELISA on TeNT, binder biotinylated; competitor mAb 6E7
[3] = target: T1, tetanus neurotoxin (TeNT), authentic …; assay: competition ELISA on TeNT, binder biotinylated; competitor SVT13L
[4] = target: T1, tetanus neurotoxin (TeNT), authentic …; assay: GT1b-TeNT inhibition ELISA, EC at A450 0.59
[5] = target: T2, recombinant tetanus toxin fragment C (rTTC) (Clostridium tetani, UniProt P04958 865-1315); assay: ELISA, directly coated rTTC, unlabelled binder
T2 sequence: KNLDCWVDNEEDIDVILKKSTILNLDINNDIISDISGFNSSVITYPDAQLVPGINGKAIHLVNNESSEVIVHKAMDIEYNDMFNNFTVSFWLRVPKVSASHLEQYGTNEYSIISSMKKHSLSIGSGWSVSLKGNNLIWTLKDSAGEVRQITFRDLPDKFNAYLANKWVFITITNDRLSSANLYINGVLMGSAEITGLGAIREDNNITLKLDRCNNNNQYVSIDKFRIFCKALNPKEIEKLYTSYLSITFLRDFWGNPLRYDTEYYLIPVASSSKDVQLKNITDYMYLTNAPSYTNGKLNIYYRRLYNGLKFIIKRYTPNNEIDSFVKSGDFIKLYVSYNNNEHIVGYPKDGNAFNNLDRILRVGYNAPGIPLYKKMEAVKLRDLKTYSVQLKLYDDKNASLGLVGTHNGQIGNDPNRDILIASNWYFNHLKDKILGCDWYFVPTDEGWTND

[6] = target: T1, tetanus neurotoxin (TeNT), authentic …; assay: competition ELISA on TeNT, binder biotinylated; competitor mAb 11n185
[7] = target: T1, tetanus neurotoxin (TeNT), authentic …; assay: competition ELISA on TeNT, binder biotinylated; competitor SVT06L
[8] = target: T1, tetanus neurotoxin (TeNT), authentic …; assay: ELISA, TeNT captured with cAb-TT2, biotinylated binder
[9] = target: T1, tetanus neurotoxin (TeNT), authentic …; assay: competition ELISA on TeNT, binder biotinylated; competitor SVT15L-3FW4M
[10] = target: T1, tetanus neurotoxin (TeNT), authentic …; assay: competition ELISA on TeNT, binder biotinylated; competitor SVT08L
[11] = target: T1, tetanus neurotoxin (TeNT), authentic …; assay: competition ELISA on TeNT, binder biotinylated; competitor mAb 6F57
[12] = target: T1, tetanus neurotoxin (TeNT), authentic …; assay: ELISA, TeNT captured with cAb-TT2, unlabelled binder
[13] = target: T1, tetanus neurotoxin (TeNT), authentic …; assay: competition ELISA on TeNT, binder biotinylated; competitor SVT16L
[14] = target: T1, tetanus neurotoxin (TeNT), authentic …; assay: ELISA, directly coated TeNT, unlabelled binder
[15] = target: T1, tetanus neurotoxin (TeNT), authentic …; assay: competition ELISA on TeNT, binder biotinylated; competitor SVT03L
[16] = target: T1, tetanus neurotoxin (TeNT), authentic …; assay: ELISA, directly coated TeNT, biotinylated binder
[17] = target: T1, tetanus neurotoxin (TeNT), authentic …; assay: competition ELISA on TeNT, binder biotinylated; competitor SVT34L
[18] = target: T1, tetanus neurotoxin (TeNT), authentic …; assay: competition ELISA on TeNT, binder biotinylated; competitor SVT02L
[19] = target: T1, tetanus neurotoxin (TeNT), authentic …; assay: competition ELISA on TeNT, binder biotinylated; competitor mAb 14F5
[20] = target: T1, tetanus neurotoxin (TeNT), authentic …; assay: GT1b-TeNT inhibition ELISA, unlabelled binder
[21] = target: T1, tetanus neurotoxin (TeNT), authentic …; assay: competition ELISA on TeNT, binder biotinylated; competitor SVT22L
[22] = target: T3, tetanus neurotoxin (TeNT), authentic tetanus holotoxin (Clostridium tetani, UniProt P04958 2-1315); assay: ELISA: directly coated TeNT, goat anti-llama Ig PO
Target sequence in this assay (P04958 2-457 limits assumed, chain 1 of 2): as the sequence (P04958 2-457 limits assumed, chain 1 of 2) above
Target sequence in this assay (P04958 458-1315 limits assumed, chain 2 of 2): as the sequence (P04958 458-1315 limits assumed, chain 2 of 2) above

[23] = target: T3, tetanus neurotoxin (TeNT), authentic …; assay: ELISA: directly coated TeNT, anti-his6 PO
Target sequence in this assay (P04958 2-457 limits assumed, chain 1 of 2): as the sequence (P04958 2-457 limits assumed, chain 1 of 2) above
Target sequence in this assay (P04958 458-1315 limits assumed, chain 2 of 2): as the sequence (P04958 458-1315 limits assumed, chain 2 of 2) above

[24] = target: T3, tetanus neurotoxin (TeNT), authentic …; assay: ELISA: directly coated TeNT, anti-his6 PO; remark: listed apart in the source
[25] = target: T3, tetanus neurotoxin (TeNT), authentic …; assay: bridging ELISA: coated TeNT, SDA, biotinylated TeNT, StrepPO (bivalent binding)
Target sequence in this assay (P04958 2-457 limits assumed, chain 1 of 2): as the sequence (P04958 2-457 limits assumed, chain 1 of 2) above
Target sequence in this assay (P04958 458-1315 limits assumed, chain 2 of 2): as the sequence (P04958 458-1315 limits assumed, chain 2 of 2) above

[26] = target: T3, tetanus neurotoxin (TeNT), authentic …; assay: as above; remark: listed apart in the source
[27] = target: T3, tetanus neurotoxin (TeNT), authentic …; assay: GT1b-TeNT inhibition ELISA
Target sequence in this assay (P04958 2-457 limits assumed, chain 1 of 2): as the sequence (P04958 2-457 limits assumed, chain 1 of 2) above
Target sequence in this assay (P04958 458-1315 limits assumed, chain 2 of 2): as the sequence (P04958 458-1315 limits assumed, chain 2 of 2) above

[28] = target: T3, tetanus neurotoxin (TeNT), authentic …; assay: BLI (Octet Red96): biotinylated SDA on SA sensor, TeNT as analyte
Target sequence in this assay (P04958 2-457 limits assumed): as the sequence (P04958 2-457 limits assumed, chain 1 of 2) above

[29] = target: T3, tetanus neurotoxin (TeNT), authentic …; assay: ELISA: directly coated TeNT, goat anti-llama Ig PO; remark: listed apart in the source
Target sequence in this assay (P04958 2-457 limits assumed, chain 1 of 2): as above
Target sequence in this assay (P04958 458-1315 limits assumed, chain 2 of 2): as the sequence (P04958 458-1315 limits assumed, chain 2 of 2) above

[30] = target: T3, tetanus neurotoxin (TeNT), authentic …; assay: GT1b-TeNT inhibition ELISA; remark: listed apart in the source
[31] = target: dog IgG (chrompure dog IgG) (dog)
[32] = target: Tetanus neurotoxin (TeNT), authentic tetanus holotoxin (Clostridium tetani, UniProt P04958 2-1315)

B1: SVT34L (VHH)
VHH: QVQLQESGGGLVQPGGSLRLSCAASGRTISSYAMGWFRQAPGKQREFVAAISRSGGNTYYTDSVKGRFIISRDNAKNTLYLQMNNLKPEETAVYYCAADPNLMYESKWKYRALEAWGQGTLVTVSS
[1]
  % inhibition of binding: 3%
[2]
  % inhibition of binding: 10%
[3]
  % inhibition of binding: 93%
[4]
  concentration giving A450 of 0.59: 0.046 µg/mL
[5]
  maximal absorbance at 450 nm: 0.886
[6]
  % inhibition of binding: 2%
[7]
  % inhibition of binding: -2%
[8]
  EC resulting in A450 0.2: 3.5 ng/mL
  maximal absorbance at 450 nm: 0.669
[9]
  % inhibition of binding: 14%
[10]
  % inhibition of binding: -4%
[11]
  % inhibition of binding: 13%
[12]
  EC resulting in A450 0.15: 3.2 ng/mL
  maximal absorbance at 450 nm: 0.335
[13]
  % inhibition of binding: 93%
[14]
  EC resulting in A450 0.2: 1 ng/mL
  maximal absorbance at 450 nm: 1.54
[15]
  % inhibition of binding: 0%
[16]
  EC resulting in A450 0.4: 1.7 ng/mL
  maximal absorbance at 450 nm: 1.29
[17]
  % inhibition of binding: 95%
[18]
  % inhibition of binding: 2%
[19]
  % inhibition of binding: 4%
[20]
  minimal absorbance at 450 nm: 0.103
[21]
  % inhibition of binding: 94%

B2: SVT06L (VHH)
VHH: QVQLQESGGGSVQAGGSLRLSCTASELSYDDYTIAWFRRAAGEGRVEDGEGVASITKSYDRAYDNKINYGHSVKGRFTISRDNAKNTVYLQMTDLLPSDTAVYYCALDITPPGGVGASLTEGFLFDYWGQGTQVTVSS
[22]
  maximal absorbance value: 0.32 A450
[23]
  maximal absorbance value: 1.44 A450
[24]
  Effective SDA Concentration at A450 0.15: 4.9 ng/mL
[25]
  maximal absorbance value: 0.35 A450
[26]
  Effective SDA Concentration at A450 0.3: 64 ng/mL
[27]
  minimal absorbance value (GT1b-TeNT inhibition): 0.27 A450
[28]
  Kd: 0.535 nM
  koff: 6.27e-05 s⁻¹
  kon: 117000 M⁻¹ s⁻¹
[29]
  Effective SDA Concentration at A450 0.15: 14 ng/mL
[30]
  Effective SDA Concentration at A450 0.56: 33 ng/mL

B3: SVT15L (VHH)
VHH: QVQLQESGGGLVQTGGSLRLSCRASGRAFANYHFGWFRQAPGKDREFVASISWKGGSTYYANFALGRFTSSVDRAESSVYLQMSGLTPEDTATYYCAAHDGGDWNYHTGMDYWGKGILVTVSS
[28]
  Kd: 0.413 nM
  koff: 3.87e-05 s⁻¹
  kon: 93600 M⁻¹ s⁻¹

B4: SVT02-GS2-SVG06M4-H6 (bispecific antibody)
chain: QVQLQQSGGGSVQAGGSLRLSCVGPQRTFSTYGMGWFRQAPGKEREFVAGINYKGDTTYYADSVKGRFTISRDNAKNTLYLQMDSLKPEDRAVYQCARKGGLGGDYRDAGQYRYWGQGTQVTVSSGGGGSGGGSEVQLVESGGALVQPGGSLRLSCAASGFPFSAYDMTWVRQAPGQGLEWVSTIHKSGGITTYADSVKGRFTISRDNAKNTLYLQMNNLESEDTAVYYCAKALRAHNSDYVGRNALGSWGQGTQVTVSSHHHHHH
[31]
  maximal absorbance value: 0.06 A450

B5: SVT15-3FW4M-GS2-SVG13M4-H6 (bispecific antibody)
chain: QVQLQESGGGLVQTGGSLRLSCRASGRAFANYHFGWFRQAPGKDREFVASISWKGGSTYYANFALGRFTSSVDRAESSVYLQMSGLTPEDTATYYCAAHDGGDWNYHTGMDYWGQGTQVTVSSGGGGSGGGSEVQLVESGGGLVQPGGSLRLSCEASGFTFDDYGMSWVRQAPGKGLEWVSSLTPNGGSTYYADSVKGRFTISRDNAKNTLYLQMNSLKPEDTALYYCAKNSYYGAMDYWGQGTQVTVSSHHHHHH
[32]
  Kd: 0.0209 nM
  koff: 8.15e-06 s⁻¹
  kon: 390000 M⁻¹ s⁻¹

B6: SVT03L (VHH)
VHH: QVQLQQSGGGSVQTGDSLTLSCTASGGSLNSYFVGWFRQSGGKEREFVSVIARTGRSTSYADSVKGRFTISRDNAANTVFLTMNNLRPDDTAIYYCAAVGRPGVLHLTQSYDYWGQGTQVTVSS
[32]
  Kd: 0.0014 nM
  koff: 6.64e-06 s⁻¹
  kon: 4.62e+06 M⁻¹ s⁻¹

B7: SVG13L (VHH)
VHH: QVQLQESGGGLVQPGGSLRLSCEASGFTFDDYGMSWVRQAPGKGLEWVSSLTPNGGSTYYADSVKGRFTISRDNAKNTLYLQMNSLKPEDTALYYCAKNSYYGAMDYWGKGTLVTVSS
[22]
  maximal absorbance value: 0.09 A450
[23]
  maximal absorbance value: 0.08 A450
[24]
  Effective SDA Concentration at A450 0.15: > 1000 ng/mL
  binding result: no binding (tested: 1000 ng/ml (A450 0.15 not reached))
[25]
  maximal absorbance value: 0.17 A450
[26]
  Effective SDA Concentration at A450 0.3: > 1000 ng/mL
[27]
  minimal absorbance value (GT1b-TeNT inhibition): 0.72 A450
[31]
  maximal absorbance value: 0.16 A450
[29]
  Effective SDA Concentration at A450 0.15: > 1000 ng/mL
[30]
  Effective SDA Concentration at A450 0.56: > 1000 ng/mL
